Measured values taken from patent US20250313634A1 (WUXI BIOLOGICS SHANGHAI, published 2025).

Experiments:
Test in all cases: capture ELISA on coated 1.14.4; relative to silent alanine substitutions
[1] = target: T1, hPD-L1_ECD.His point mutant S169A (human, UniProt Q9NZQ7 19-238)
T1 construct: extracellular domain
Procedure, shortened: (§1)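 Capture ELISA in which supernatant containing quantified PD-L1 alanine mutant was detected with HRP anti-His antibody. Absorbance was normalized to the average of control mutants. Epitope residues were called at binding fold change <0.55.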

[2] = target: T2, hPD-L1_ECD.His point mutant E45A (human, UniProt Q9NZQ7 19-238)
T2 construct: extracellular domain
T2 sequence (Q9NZQ7 19-238 E45A): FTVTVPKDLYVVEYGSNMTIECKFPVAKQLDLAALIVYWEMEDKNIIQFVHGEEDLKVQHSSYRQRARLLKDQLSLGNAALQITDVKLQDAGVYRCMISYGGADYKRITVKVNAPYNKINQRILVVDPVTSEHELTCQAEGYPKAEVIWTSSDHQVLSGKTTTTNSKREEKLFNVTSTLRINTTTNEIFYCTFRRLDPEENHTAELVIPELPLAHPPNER
Procedure, shortened: as §1

[3] = target: T3, hPD-L1_ECD.His point mutant T181A (human, UniProt Q9NZQ7 19-238)
T3 construct: extracellular domain
T3 sequence (Q9NZQ7 19-238 T181A): as the sequence (Q9NZQ7 19-238 E45A) above, with A27E, T163A counted along it
Procedure, shortened: as §1

[4] = target: T4, hPD-L1_ECD.His point mutant L214A (human, UniProt Q9NZQ7 19-238)
T4 construct: extracellular domain
T4 sequence (Q9NZQ7 19-238 L214A): as the sequence (Q9NZQ7 19-238 E45A) above, with A27E, L196A counted along it
Procedure, shortened: as §1

[5] = target: T5, hPD-L1_ECD.His point mutant R125A (human, UniProt Q9NZQ7 19-238)
T5 construct: extracellular domain
T5 sequence (Q9NZQ7 19-238 R125A): as the sequence (Q9NZQ7 19-238 E45A) above, with A27E, R107A counted along it
Procedure, shortened: as §1

[6] = target: T6, hPD-L1_ECD.His point mutant D26A (human, UniProt Q9NZQ7 19-238)
T6 construct: extracellular domain
T6 sequence (Q9NZQ7 19-238 D26A): as the sequence (Q9NZQ7 19-238 E45A) above, with D8A, A27E counted along it
Procedure, shortened: as §1

[7] = target: T7, hPD-L1_ECD.His point mutant Q83A (human, UniProt Q9NZQ7 19-238)
T7 construct: extracellular domain
T7 sequence (Q9NZQ7 19-238 Q83A): as the sequence (Q9NZQ7 19-238 E45A) above, with A27E, Q65A counted along it
Procedure, shortened: as §1

[8] = target: T8, hPD-L1_ECD.His point mutant L74A (human, UniProt Q9NZQ7 19-238)
T8 construct: extracellular domain
T8 sequence (Q9NZQ7 19-238 L74A): as the sequence (Q9NZQ7 19-238 E45A) above, with A27E, L56A counted along it
Procedure, shortened: as §1

[9] = target: T9, hPD-L1_ECD.His point mutant M36A (human, UniProt Q9NZQ7 19-238)
T9 construct: extracellular domain
T9 sequence (Q9NZQ7 19-238 M36A): as the sequence (Q9NZQ7 19-238 E45A) above, with M18A, A27E counted along it
Procedure, shortened: as §1

[10] = target: T10, hPD-L1_ECD.His point mutant H69A (human, UniProt Q9NZQ7 19-238)
T10 construct: extracellular domain
T10 sequence (Q9NZQ7 19-238 H69A): as the sequence (Q9NZQ7 19-238 E45A) above, with A27E, H51A counted along it
Procedure, shortened: as §1

[11] = target: T11, hPD-L1_ECD.His point mutant I38A (human, UniProt Q9NZQ7 19-238)
T11 construct: extracellular domain
T11 sequence (Q9NZQ7 19-238 I38A): as the sequence (Q9NZQ7 19-238 E45A) above, with I20A, A27E counted along it
Procedure, shortened: as §1

[12] = target: T12, hPD-L1_ECD.His point mutant L94A (human, UniProt Q9NZQ7 19-238)
T12 construct: extracellular domain
T12 sequence (Q9NZQ7 19-238 L94A): as the sequence (Q9NZQ7 19-238 E45A) above, with A27E, L76A counted along it
Procedure, shortened: as §1

[13] = target: T13, hPD-L1_ECD.His point mutant E58A (human, UniProt Q9NZQ7 19-238)
T13 construct: extracellular domain
T13 sequence (Q9NZQ7 19-238 E58A): as the sequence (Q9NZQ7 19-238 E45A) above, with A27E, E40A counted along it
Procedure, shortened: as §1

[14] = target: T14, hPD-L1_ECD.His point mutant E60A (human, UniProt Q9NZQ7 19-238)
T14 construct: extracellular domain
T14 sequence (Q9NZQ7 19-238 E60A): as the sequence (Q9NZQ7 19-238 E45A) above, with A27E, E42A counted along it
Procedure, shortened: as §1

[15] = target: T15, hPD-L1_ECD.His point mutant P216A (human, UniProt Q9NZQ7 19-238)
T15 construct: extracellular domain
T15 sequence (Q9NZQ7 19-238 P216A): as the sequence (Q9NZQ7 19-238 E45A) above, with A27E, P198A counted along it
Procedure, shortened: as §1

[16] = target: T16, hPD-L1_ECD.His point mutant G70A (human, UniProt Q9NZQ7 19-238)
T16 construct: extracellular domain
T16 sequence (Q9NZQ7 19-238 G70A): as the sequence (Q9NZQ7 19-238 E45A) above, with A27E, G52A counted along it
Procedure, shortened: as §1

[17] = target: T17, hPD-L1_ECD.His point mutant D49A (human, UniProt Q9NZQ7 19-238)
T17 construct: extracellular domain
T17 sequence (Q9NZQ7 19-238 D49A): as the sequence (Q9NZQ7 19-238 E45A) above, with A27E, D31A counted along it
Procedure, shortened: as §1

[18] = target: T18, hPD-L1_ECD.His point mutant V128A (human, UniProt Q9NZQ7 19-238)
T18 construct: extracellular domain
T18 sequence (Q9NZQ7 19-238 V128A): as the sequence (Q9NZQ7 19-238 E45A) above, with A27E, V110A counted along it
Procedure, shortened: as §1

[19] = target: T19, hPD-L1_ECD.His point mutant K189A (human, UniProt Q9NZQ7 19-238)
T19 construct: extracellular domain
T19 sequence (Q9NZQ7 19-238 K189A): as the sequence (Q9NZQ7 19-238 E45A) above, with A27E, K171A counted along it
Procedure, shortened: as §1

[20] = target: T20, hPD-L1_ECD.His point mutant V76A (human, UniProt Q9NZQ7 19-238)
T20 construct: extracellular domain
T20 sequence (Q9NZQ7 19-238 V76A): as the sequence (Q9NZQ7 19-238 E45A) above, with A27E, V58A counted along it
Procedure, shortened: as §1

[21] = target: T21, hPD-L1_ECD.His point mutant E71A (human, UniProt Q9NZQ7 19-238)
T21 construct: extracellular domain
T21 sequence (Q9NZQ7 19-238 E71A): as the sequence (Q9NZQ7 19-238 E45A) above, with A27E, E53A counted along it
Procedure, shortened: as §1

[22] = target: T22, hPD-L1_ECD.His point mutant Q107A (human, UniProt Q9NZQ7 19-238)
T22 construct: extracellular domain
T22 sequence (Q9NZQ7 19-238 Q107A): as the sequence (Q9NZQ7 19-238 E45A) above, with A27E, Q89A counted along it
Procedure, shortened: as §1

[23] = target: T23, hPD-L1_ECD.His point mutant E205A (human, UniProt Q9NZQ7 19-238)
T23 construct: extracellular domain
T23 sequence (Q9NZQ7 19-238 E205A): as the sequence (Q9NZQ7 19-238 E45A) above, with A27E, E187A counted along it
Procedure, shortened: as §1

[24] = target: T24, hPD-L1_ECD.His point mutant V21A (human, UniProt Q9NZQ7 19-238)
T24 construct: extracellular domain
T24 sequence (Q9NZQ7 19-238 V21A): as the sequence (Q9NZQ7 19-238 E45A) above, with V3A, A27E counted along it
Procedure, shortened: as §1

[25] = target: T25, hPD-L1_ECD.His point mutant T203A (human, UniProt Q9NZQ7 19-238)
T25 construct: extracellular domain
T25 sequence (Q9NZQ7 19-238 T203A): as the sequence (Q9NZQ7 19-238 E45A) above, with A27E, T185A counted along it
Procedure, shortened: as §1

[26] = target: T26, hPD-L1_ECD.His point mutant Y32A (human, UniProt Q9NZQ7 19-238)
T26 construct: extracellular domain
T26 sequence (Q9NZQ7 19-238 Y32A): as the sequence (Q9NZQ7 19-238 E45A) above, with Y14A, A27E counted along it
Procedure, shortened: as §1

T1 sequence (Q9NZQ7 19-238 S169A): as the sequence (Q9NZQ7 19-238 E45A) above, with A27E, S151A counted along it

B1: 1.14.4 (antibody, V domains shown)
VH: EVQLLESGGGLVQPGGSLRLSCAASGFTFSSYAMSWVRQAPGKGLEWVSGISGSGGFTYYADSVKGRFTISRDNSKNTLYLQMNSLRAEDTAVYYCAKPPRGYNYGPFDYWGQGTLVTVSS
VL: SYVLTQPPSVSVAPGQTARITCGGNNIGSKSVHWYQQKPGQAPVLVVYDDSDRPSGIPERFSGSNSGNTATLTISRVEAGDEADYYCQVWDSSSDHVVFGGGTKLTVL
notes: Fully human monoclonal antibody with a human constant region of IgG4 isotype
- fold change [1]: 0.939 fold
- fold change [2]: 0.942 fold
- fold change [3]: 0.947 fold
- fold change [4]: 0.958 fold
- fold change [5]: 0.959 fold
- fold change [6]: 0.963 fold
- fold change [7]: 0.982 fold
- fold change [8]: 1.02 fold
- fold change [9]: 1.04 fold
- fold change [10]: 1.06 fold
- fold change [11]: 1.13 fold
- fold change [12]: 1.19 fold
- fold change [13]: 0.399 fold
- fold change [14]: 0.547 fold
- fold change [15]: 0.563 fold
- fold change [16]: 0.602 fold
- fold change [17]: 0.603 fold
- fold change [18]: 0.701 fold
- fold change [19]: 0.759 fold
- fold change [20]: 0.76 fold
- fold change [21]: 0.772 fold
- fold change [22]: 0.792 fold
- fold change [23]: 0.801 fold
- fold change [24]: 0.803 fold
- fold change [25]: 0.87 fold
- fold change [26]: 0.935 fold
